Experimental data as given in patent publication US20100048468A1 (Amgen, published 2010).
Numbering of substitutions follows the chain as printed. Non-standard residues stand in square brackets, D forms with d. Primed or numbered codes have the meaning given here. No end group written: not given here. branched PEG 40 kDa″ = 40 kDa branched poly(ethylene glycol); Aib′ = alpha aminobutyric acid (source's wording)

B1: H[Aib]EGT FTSDVSSYLEGQAAKEFIAWLVKGRGCSGG (SEQ ID NO: 11) (peptide)
peptide: HXEGTFTSDVSSYLEGQAAKEFIAWLVKGRGCSGG
modifications: Aib (2-aminoisobutyric acid) at position 8 (GLP-1 numbering; residue 2 of the entry)
notes: Unconjugated peptide
B2: cgGLP-17 (SEQ ID NO: 11 + 20k PEG) (peptide)
peptide: B1 peptide
modifications: Aib at position 8 (residue 2 of the entry); 20k PEG on the cysteine at position 38 (GLP-1 numbering; residue 32 of the entry)
B3: cgGLP-6 (SEQ ID NO: 10 + 8k PEG dumbbell) (peptide)
peptide: HGEGTFTSDVSSYLEGQAAKEFIAWLVKGRGCSG
modifications: not fully specified (residue 32); also: dimer: two peptides on one mal-PEG-mal, one at each end
B4: H[bAla]EGT FTSDVSSYLEGQAAKEFIAWLVKGRGCSGG (SEQ ID NO: 12) (peptide)
peptide: B1 peptide
modifications: bAla (beta aminopropionic acid) at position 8 (GLP-1 numbering; residue 2 of the entry)
B5: [Gly8]cyclo[21-26] GLP1(7-37)-amide (SEQ ID NO: 42) (peptide)
peptide: HGEGTFTSDVSSYLEGQAAKEFIAWLVKGRG
modifications: side-chain cyclic lactam between positions 21 (Glu) and 26 (Lys) (GLP-1 numbering; residues 15 and 20 of the entry); C-terminal amide
B6: [Gly8]GLP1(7-37) cyclo[Glu18-Lys22] (SEQ ID NO: 39) (peptide)
peptide: B5 peptide with A18E, F22K
modifications: side-chain cyclic lactam between Glu18 and Lys22 (counted on the peptide; GLP-1 positions 24 and 28); C-terminal amide
B7: [Gly8]GLP1(7-37) cyc[Glu15-Lys19] (SEQ ID NO: 36) (peptide)
peptide: B5 peptide with A19K
modifications: side-chain cyclic lactam between Glu15 and Lys19 (counted on the peptide; GLP-1 positions 21 and 25); C-terminal amide

Molecular target: T1, mouse GLP-1 receptor (mouse, UniProt O35659 22-463)
T1 sequence (looked up): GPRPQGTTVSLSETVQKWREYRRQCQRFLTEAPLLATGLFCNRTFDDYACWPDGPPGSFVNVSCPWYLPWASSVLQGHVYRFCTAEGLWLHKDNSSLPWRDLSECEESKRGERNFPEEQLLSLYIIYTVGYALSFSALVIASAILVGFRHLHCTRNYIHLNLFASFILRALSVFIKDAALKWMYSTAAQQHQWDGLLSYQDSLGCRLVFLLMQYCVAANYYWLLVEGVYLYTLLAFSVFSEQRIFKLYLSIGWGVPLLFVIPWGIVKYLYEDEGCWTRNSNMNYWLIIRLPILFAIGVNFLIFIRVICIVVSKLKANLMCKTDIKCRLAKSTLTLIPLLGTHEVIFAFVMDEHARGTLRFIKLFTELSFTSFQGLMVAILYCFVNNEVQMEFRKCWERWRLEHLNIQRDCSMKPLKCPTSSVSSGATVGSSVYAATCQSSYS
Experiment: cell-based or functional assay

| Binder | EC50 mouse [nM] |
| --- | --- |
| B1 | > 50 |
| B2 | > 100 |
| HGEGTFTSDVSSYLEGQAAKEFIAWLVKGRGCSG [HGEGTFTSDVSSYLEGQAAKEFIAWLVKGRGCSG (SEQ ID NO: 10)] | 0.32 |
| HGEGTFTSDVSSYLEGQAAKEFIAWLVKGRGCSG (not fully specified (residue 32), also called cgGLP-09A) [cgGLP-4 & mgGLP-09A (SEQ ID NO: 10 + 20k PEG)] | 1.8 |
| B3 | 0.8 |
| HGEGTFTSDVSSYLEGQAAKEFIAWLVKGRGC(branched PEG 40 kDa″)SG [cgGLP-5 (SEQ ID NO: 10 + 40k branched PEG)] | 1.5 |
| HGEGTFTSDVSSYLEGQAAKEFIAWLVKGRGC(PEG 30 kDa)SG [cgGLP-16 (SEQ ID NO: 10 + 30k PEG)] | 4 |
| HGEGTFTSDVSSYLEGQAAKEFIAWLVKGRGC(PEG 30 kDa)SG [cgGLP-8 (SEQ ID NO: 10 + 30k PEG)] | 3 |

Molecular target: T2, human GLP-1 receptor (human, UniProt P43220 24-463)
Experiment: cell-based or functional assay

| Binder | EC50 human [nM] |
| --- | --- |
| B1 | 4 |
| B4 | > 100 |
| B2 | 20 |
| HGEGTFTSDVSSYLEGQAAKEFIAWLVKGRGCSG [HGEGTFTSDVSSYLEGQAAKEFIAWLVKGRGCSG (SEQ ID NO: 10)] | 0.05 |
| HGEGTFTSDVSSYLEGQAAKEFIAWLVKGRGCSG (not fully specified (residue 32), also called cgGLP-09A) [cgGLP-4 & mgGLP-09A (SEQ ID NO: 10 + 20k PEG)] | 0.23 |
| B3 | ~0.1 |
| HGEGTFTSDVSSYLEGQAAKEFIAWLVKGRGC(PEG 30 kDa)SG [cgGLP-16 (SEQ ID NO: 10 + 30k PEG)] | 0.39 |
| HGEGTFTSDVSSYLEGQAAKEFIAWLVKGRGC(PEG 30 kDa)SG [cgGLP-8 (SEQ ID NO: 10 + 30k PEG)] | 0.4 |

Molecular target: T2, human GLP-1 receptor
Experiment: cell-based or functional assay
Remark: another data set of the same source

| Binder | EC50 human [nM] |
| --- | --- |
| B5 | 0.6 |
| B6 | 0.8 |
| B7 | 0.15 |

Molecular target: T1, mouse GLP-1 receptor
Experiment: cell-based or functional assay
Remark: another data set of the same source

| Binder | EC50 mouse [nM] |
| --- | --- |
| HGEGTFTSDVSSYLE[Aib′]QAAKEFIAWLVKGRGC(mPEG‑maleimide 20 kDa)SGG-NH2 [mgGLP-15 (SEQ ID NO: 24 + 20k PEG)] | 1.8 |

Molecular target: T2, human GLP-1 receptor
Experiment: cell-based or functional assay
Remark: another data set of the same source

| Binder | EC50 human [nM] |
| --- | --- |
| HGEGTFTSDVSSYLE[Aib′]QAAKEFIAWLVKGRGC(mPEG‑maleimide 20 kDa)SGG-NH2 [mgGLP-15 (SEQ ID NO: 24 + 20k PEG)] | 0.2 |

Molecular target: T2, human GLP-1 receptor
Experiment: 125I-GLP-1 displacement, membranes of CHOK1 cells expressing human GLP-1 receptor
Experimental: (§1) Membrane Preparation. […] Cells were sedimented at 1500 rpm for 10 minutes. The resulting pellets were homogenized in 15 mls of ice cold sucrose buffer (25 mM Tris-HCl, 0.32 M Sucrose, 0.25 g/L, sodium azide, pH 7.4) with a motorized, glass fitted, Teflon homogenizer. The homogenate was centrifuged at 48,000×g at 4° C. for 10 minutes, resuspended in 25 ml assay buffer (50 mM Tris-HCl, 5 mM MgCl₂, 10 mg/ml protease-free BSA, 0.1 mg/ml STI, and 0.1 mg/ml Pefabloc, pH 7.4) with a Tissue-Tearor (Biospec Products), then centrifuged again at 48,000×g for 10 minutes. The pellets were homogenized for a third time in 15 ml assay buffer using the Tissue-Tearor and again centrifuged at 48,000×g for 10 minutes. The resulting pellet was resuspended in assay buffer at a wet weight concentration of 4 mg/ml.
(§2) Ligand Binding Assay. Binding assays were performed in 96-well U-bottom plates. […] The reaction was terminated by rapid filtration through Unfilter-96 GF/C glass fiber filter plates (FilterMate 196 Packard Harvester, PerkinElmer, Shelton, Conn.) pre-soaked in 0.5% polyethylenimine, followed by three washes with 300 μl of cold 50 mM Tris-HCl, pH 7.4. Bound radioactivity was determined using a TopCount microplate scintillation and luminescence counter (Packard Instrument Company, PerkinElmer, Shelton, Conn.). Nonlinear regression analyses of resulting concentration curves were performed using GraphPad Prism (GraphPad Software, Inc., San Diego, Calif.).
The pegylated molecules were conjugated at the cysteine at position 38.

| Binder | IC50 [nM] |
| --- | --- |
| B1 | 100 |
| B2 | 1000 |
| HGEGTFTSDVSSYLEGQAAKEFIAWLVKGRGCSG (not fully specified (residue 32), also called cgGLP-09A) [cgGLP-4 & mgGLP-09A (SEQ ID NO: 10 + 20k PEG)] | 130 |
| B3 | 11 |

Molecular target: T2, human GLP-1 receptor
Experiment: as above
Remark: another data set of the same source
Experimental: as §1
as §2, with “Calif.). […]” for “Calif.).”

| Binder | IC50 [nM] |
| --- | --- |
| HGEGTFTSDVSSYLE[Aib′]QAAKEFIAWLVKGRGC(mPEG‑maleimide 20 kDa)SGG-NH2 [mgGLP-15 (SEQ ID NO: 24 + 20k PEG)] | 100 |
